Measured values published in patent WO2013139956A1 (dated 2013).
Ends that are not written are not given here. * marks the point of attachment. Biotin = O=C1N[C@H]2[C@H](CS[C@H]2CCCCC(=O)*)N1

T1: peptide … (SEQ ID NO:51), N-terminally biotinylated (human)
T1 sequence (peptide, N-terminally biotinylated): EISQEVRGDVFPSY

T2: peptide … (SEQ ID NO:74), N-terminally biotinylated (human)
T2 sequence (peptide, N-terminally biotinylated): EISQEVAGDVFPSY

T3: peptide … (SEQ ID NO:77), N-terminally biotinylated (human)
T3 sequence (peptide, N-terminally biotinylated): EISQEVAADVFPSY

T4: peptide … (SEQ ID NO:75), N-terminally biotinylated (human)
T4 sequence (peptide, N-terminally biotinylated): EISQEVRADVFPSY

T5: human lactadherin (human, UniProt Q08431 24-387)
T5 sequence (looked up): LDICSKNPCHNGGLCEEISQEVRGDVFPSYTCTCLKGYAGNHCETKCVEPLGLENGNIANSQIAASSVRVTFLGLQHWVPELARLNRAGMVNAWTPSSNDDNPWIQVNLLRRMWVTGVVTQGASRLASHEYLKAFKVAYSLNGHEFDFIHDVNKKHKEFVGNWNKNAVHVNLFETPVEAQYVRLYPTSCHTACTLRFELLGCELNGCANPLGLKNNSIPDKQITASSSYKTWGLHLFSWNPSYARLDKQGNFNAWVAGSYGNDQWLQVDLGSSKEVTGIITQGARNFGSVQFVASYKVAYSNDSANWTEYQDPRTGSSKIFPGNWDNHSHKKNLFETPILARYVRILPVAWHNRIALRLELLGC

T6: peptide NGGLCEEISQEVRG (SEQ ID NO:81), N-terminally biotinylated (human)
T6 construct: Human lactadherin 14-mer with part of the RGD domain at the C-terminus
T6 peptide: Biotin-NGGLCEEISQEVRG

T7: peptide DVFPSYTCTCLKGY (SEQ ID NO:85), N-terminally biotinylated (human, cysteine pairing not given here)
T7 construct: Human lactadherin 14-mer with part of the RGD domain at the N-terminus
T7 peptide: Biotin-DVFPSYTCTCLKGY

T8: peptide EISQEVAADVFPSY (SEQ ID NO:77), N-terminally biotinylated (human)
T8 peptide: Biotin-EISQEVAADVFPSY

T9: peptide EISQEVAGAVFPSY (SEQ ID NO:79), N-terminally biotinylated (human)
T9 peptide: Biotin-EISQEVAGAVFPSY

T10: peptide CHNGGLCEEISQEV (SEQ ID NO:83), N-terminally biotinylated (human, cysteine pairing not given here)
T10 peptide: Biotin-CHNGGLCEEISQEV

T11: peptide EISQEVRADVFPSY (SEQ ID NO:75), N-terminally biotinylated (human)
T11 peptide: Biotin-EISQEVRADVFPSY

T12: peptide EISQEVRAAVFPSY (SEQ ID NO:78), N-terminally biotinylated (human)
T12 peptide: Biotin-EISQEVRAAVFPSY

T13: peptide EISQEVRGAVFPSY (SEQ ID NO:76), N-terminally biotinylated (human)
T13 peptide: Biotin-EISQEVRGAVFPSY

T14: peptide VFPSYTCTCLKGYA (SEQ ID NO:86), N-terminally biotinylated (human, cysteine pairing not given here)
T14 peptide: Biotin-VFPSYTCTCLKGYA

T15: peptide EISQEVAGDVFPSY (SEQ ID NO:74), N-terminally biotinylated (human)
T15 peptide: Biotin-EISQEVAGDVFPSY

T16: peptide EISQEVAAAVFPSY (SEQ ID NO:80), N-terminally biotinylated (human)
T16 peptide: Biotin-EISQEVAAAVFPSY

T17: peptide HNGGLCEEISQEVR (SEQ ID NO:82), N-terminally biotinylated (human)
T17 construct: Human lactadherin 14-mer with part of the RGD domain at the C-terminus
T17 peptide: Biotin-HNGGLCEEISQEVR

T18: peptide GDVFPSYTCTCLKG (SEQ ID NO:84), N-terminally biotinylated (human, cysteine pairing not given here)
T18 construct: Human lactadherin 14-mer with part of the RGD domain at the N-terminus
T18 peptide: Biotin-GDVFPSYTCTCLKG

B1: anti-lactadherin antibody 215A9 (antibody, IgG1, V domains shown)
VH: QVSLKESGPGILQSSQTLSLTCSFSGFSLSTSGMGVSWIRQPSGKGLEWLAHIYWNDDKRYNPSLKSRLTISKDTSRDQVFLKITSVDTADTATYFCARRPRFYRDYDEGIDFWGQGTTLTVSS
VL: QAVVTQESALTTSPGETVTLTCRSSTGAVTTNNYANWVQEKPDHLFTGLIGGTNNRTPGVPARFSGSLIGDKAALTITGAQTEDEAIYFCALWYSNLWVFGGGTKLTVLG
notes: also called 2154A9; hybridoma 215A9
B2: anti-lactadherin antibody 399A12 (antibody, V domains shown)
VH: QVTLKESGPGVLQSSQTLSLTCSFSGFSLSTSGLGVIWIRQPSGAGLEWLAQIYWDDNKRYNPSLKSRLTISKDTSRNQVFLKITPVDTADTATYYCARRTFYDYDEGFYAMDYWGQGTSVTVSS
VL: DIQMTQTTSSLSASLGDRVTITCRASQDISNYLNWYQQKPDGTIKLLIYYASRLHSGVPSRFSGSGSGTDYSLTISNLEQEDIATYFCQQGNTLPLTFGAGTKLELKR
notes: Murine monoclonal, kappa light chain; Variable regions identical to those of 416H9; also called hybridoma 399A12; LMBP 9491CB
B3: anti-lactadherin antibody 416H9 (antibody, IgG1, V domains shown)
VH: B2 VH
VL: B2 VL
notes: also called hybridoma 416H9; LMBP 9492CB
B4: anti-lactadherin antibody 346B6 (antibody, IgG1, V domains shown)
VH: EFQLQQSGPELVKPGASVRISCKASGYSFTDYNMNWVKQSDGKTLEWIGVINPDYGTTNNNQRFRGKATLTLDLSSSTAYMQLNSLTSEDSAVYYCARGGDYGAGYALDYWGQGTSVTVSS
VL: QIVLTQSPAIMSASPGEKVTMTCSASSSVSYMYWYQQKPGSSPRLLIYDTSNLASGVPVRFSGSGSGTSYSLTISRMEAEDAATYYCQQWSSYPPTFGAGTKLELKR
notes: VH identical to that of 311A7; also called hybridoma 346B6; LMBP 9490CB
B5: anti-lactadherin antibody 311A7 (antibody, IgG1, V domains shown)
VH: B4 VH
VL: QIVLTQSPAIMSASPGEKVTITCSASSSVSYMYWFQQKPGTSPKLWIYSTSNLASGVPARFSGSGSGTSYSLTISRMEAEDAATYYCQQRSSYPRTFGGGTKLEIKR
notes: also called murine 311A7; hybridoma 311A7
B6: huMc3 antibody (antibody, V domains shown)
VH: EVQLVQSGAEVKKPGASVKVSCKASGYSFTGYTMHWVKQSPGMNLEWIGLINPYNGGTVYNQKFQDKATLTVDKSTSTAYMELSSLRSEDTAVYFCARRWRYTMDYWGQGTLVTVSS
VL: DIVMTQSPDSLAVSLGERATITCKASQDVSIGVAWYQQKPGQSPKLLIYSASSRYTGVPDRFSGSGSGTDFTLTISSLQAEDVAVYYCQQHYTSPFTFGSGTKVEIK
B7: chimeric 311A7 antibody (antibody, V domains shown)
VH: B4 VH
VL: B5 VL

Molecular target: T1, peptide … (SEQ ID NO:51), N-terminally biotinylated (human)
Assay: ELISA, biotin-peptide on neutravidin plate, antibody 1 ug/ml

Point of comparison: B4, absorbance 450 nm minus 540 nm 1 absorbance. Against it:
- B1 — higher, 1.1 absorbance
- B2 — higher, 1.62 absorbance
- B3 — higher, 1.76 absorbance
- B5 — higher, 1.47 absorbance

Molecular target: T2, peptide … (SEQ ID NO:74), N-terminally biotinylated (human)
Assay: as above

Point of comparison: B1, absorbance 450 nm minus 540 nm 0.52 absorbance. Against it:
- B2 — lower, 0.24 absorbance
- B3 — lower, 0.25 absorbance

Molecular target: T3, peptide … (SEQ ID NO:77), N-terminally biotinylated (human)
Assay: as above

Point of comparison: B1, absorbance 450 nm minus 540 nm 0.23 absorbance. Against it:
- B2 — lower, 0.2 absorbance
- B3 — lower, 0.19 absorbance

Molecular target: T4, peptide … (SEQ ID NO:75), N-terminally biotinylated (human)
Assay: as above

Point of comparison: B2, absorbance 450 nm minus 540 nm 0.69 absorbance. Against it:
- B1 — higher, 0.74 absorbance
- B3 — higher, 0.7 absorbance

Molecular target: T5, human lactadherin
Assay: cell-based or functional assay

Point of comparison: B4, “inhibition of SKOV-3 cell adhesion to coated human lactadherin, antibody at 5 ug/mL” value 25%. Against it:
- B1 — higher, > 70%
- B2 — higher, > 70%
- B3 — higher, > 70%
- B6 — higher, > 70%
- B5 — higher, > 70%

B2 and B3 cannot be ordered by “decrease of SKOV-3 cell migration towards lactadherin, antibody at 5 ug/mL” value: over 80% for the first, over 80% for the second.

With B5 the “decrease of SKOV-3 cell migration towards lactadherin, antibody at 5 ug/mL” value was over 80%.

Point of comparison: B5, “IC50 (nM), inhibition of cell adhesion to human lactadherin” value 7.36 nM. Against it:
- B6 — within 1.5-fold, 6.48 nM
- B7 — the same, 7.36 nM

Molecular target: T6, peptide NGGLCEEISQEVRG (SEQ ID NO:81), …
Assay: ELISA, biotin-peptide on neutravidin plate, antibody 1 ug/ml

Point of comparison: B6, “absorbance 450 nm minus 540 nm” value 0.09 absorbance. Against it:
- B1 — lower, 0.03 absorbance
- B2 — lower, 0.03 absorbance
- B3 — lower, 0.02 absorbance
- B4 — lower, 0.02 absorbance
- B5 — lower, 0.01 absorbance

Molecular target: T7, peptide DVFPSYTCTCLKGY (SEQ ID NO:85), …
Assay: as above

Point of comparison: B5, “absorbance 450 nm minus 540 nm” value 0.02 absorbance. Against it:
- B1 — higher, 0.04 absorbance
- B2 — higher, 0.04 absorbance
- B3 — higher, 0.03 absorbance
- B6 — higher, 0.09 absorbance
- B4 — higher, 0.03 absorbance

Molecular target: T8, peptide EISQEVAADVFPSY (SEQ ID NO:77), …
Assay: as above

Point of comparison: B6, “absorbance 450 nm minus 540 nm” value 0.05 absorbance. Against it:
- B4 — lower, 0.01 absorbance
- B5 — lower, 0.01 absorbance

Molecular target: T9, peptide EISQEVAGAVFPSY (SEQ ID NO:79), …
Assay: as above

Point of comparison: B1, “absorbance 450 nm minus 540 nm” value 0.03 absorbance. Against it:
- B2 — the same, 0.03 absorbance
- B3 — higher, 0.05 absorbance
- B6 — higher, 0.04 absorbance
- B4 — higher, 0.07 absorbance
- B5 — higher, 0.05 absorbance

Molecular target: T10, peptide CHNGGLCEEISQEV (SEQ ID NO:83), …
Assay: as above

Point of comparison: B4, “absorbance 450 nm minus 540 nm” value 0.02 absorbance. Against it:
- B1 — higher, 0.03 absorbance
- B2 — the same, 0.02 absorbance
- B3 — higher, 0.03 absorbance
- B6 — higher, 0.09 absorbance
- B5 — the same, 0.02 absorbance

Molecular target: T11, peptide EISQEVRADVFPSY (SEQ ID NO:75), …
Assay: as above

Point of comparison: B4, “absorbance 450 nm minus 540 nm” value 0.01 absorbance. Against it:
- B6 — higher, 0.03 absorbance
- B5 — the same, 0.01 absorbance

Molecular target: T12, peptide EISQEVRAAVFPSY (SEQ ID NO:78), …
Assay: as above

Point of comparison: B1, “absorbance 450 nm minus 540 nm” value 0.02 absorbance. Against it:
- B2 — the same, 0.02 absorbance
- B3 — the same, 0.02 absorbance
- B6 — higher, 0.06 absorbance
- B4 — the same, 0.02 absorbance
- B5 — the same, 0.02 absorbance

Molecular target: T13, peptide EISQEVRGAVFPSY (SEQ ID NO:76), …
Assay: as above

Point of comparison: B4, “absorbance 450 nm minus 540 nm” value 0.02 absorbance. Against it:
- B1 — higher, 0.1 absorbance
- B2 — higher, 0.03 absorbance
- B3 — the same, 0.02 absorbance
- B6 — higher, 0.06 absorbance
- B5 — lower, 0.01 absorbance

Molecular target: T14, peptide VFPSYTCTCLKGYA (SEQ ID NO:86), …
Assay: as above

Point of comparison: B5, “absorbance 450 nm minus 540 nm” value 0.02 absorbance. Against it:
- B1 — higher, 0.05 absorbance
- B2 — higher, 0.03 absorbance
- B3 — higher, 0.03 absorbance
- B6 — higher, 0.07 absorbance
- B4 — higher, 0.03 absorbance

Molecular target: T15, peptide EISQEVAGDVFPSY (SEQ ID NO:74), …
Assay: as above

Point of comparison: B5, “absorbance 450 nm minus 540 nm” value 0.02 absorbance. Against it:
- B6 — higher, 0.04 absorbance
- B4 — the same, 0.02 absorbance

Molecular target: T16, peptide EISQEVAAAVFPSY (SEQ ID NO:80), …
Assay: as above

Point of comparison: B1, “absorbance 450 nm minus 540 nm” value 0.02 absorbance. Against it:
- B2 — the same, 0.02 absorbance
- B3 — the same, 0.02 absorbance
- B6 — higher, 0.04 absorbance
- B4 — lower, 0.01 absorbance
- B5 — the same, 0.02 absorbance

Molecular target: T17, peptide HNGGLCEEISQEVR (SEQ ID NO:82), …
Assay: as above

Point of comparison: B6, “absorbance 450 nm minus 540 nm” value 0.08 absorbance. Against it:
- B1 — lower, 0.03 absorbance
- B2 — lower, 0.02 absorbance
- B3 — lower, 0.03 absorbance
- B4 — lower, 0.02 absorbance
- B5 — lower, 0.02 absorbance

Molecular target: T18, peptide GDVFPSYTCTCLKG (SEQ ID NO:84), …
Assay: as above

Point of comparison: B3, “absorbance 450 nm minus 540 nm” value 0.03 absorbance. Against it:
- B1 — higher, 0.04 absorbance
- B2 — the same, 0.03 absorbance
- B6 — higher, 0.08 absorbance
- B4 — lower, 0.02 absorbance
- B5 — lower, 0.02 absorbance
